Source: patent US20100004432, “APTAMER AGAINST MIDKINE AND USE THEREOF” (RIBOMIC INC., published 2010)
Substitutions are numbered along the chain they refer to.

T1: midkine (full-length) (Homo sapiens, UniProt P21741 P21741:23-143)
T1 sequence: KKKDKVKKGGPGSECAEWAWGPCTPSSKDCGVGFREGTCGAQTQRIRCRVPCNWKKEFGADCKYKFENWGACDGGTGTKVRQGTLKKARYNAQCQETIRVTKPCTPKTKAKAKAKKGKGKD

B1: SEQ ID NO:31 (ssRNA)
RNA: GGGAGAGGAGAAGAGGAAGUGUGCACAGGGGUUGGUGUCGGGUGCAUACAGUAUAAGAUAGAGGACA
modifications: 2'-F pyrimidines
B2: SEQ ID NO:32 (ssRNA)
RNA: GGGAGAGGAGAAGAGGAAGUGUGCACAGGGGUUGGUGUCGGGUGCAUACAGUAUAAG
modifications: 2'-F pyrimidines
B3: SEQ ID NO:33 (ssRNA)
RNA: GGAGAAGAGGAAGUGUGCACAGGGGUUGGUGUCGGGUGCAUACAGUAUAAGAUAGAGGACA
modifications: 2'-F pyrimidines
B4: SEQ ID NO:35 (ssRNA)
RNA: GGGAGAGGAGAAGAGGAAGUGUGCACAGGGGUUGGUGUCGGGUGCAUACAG
modifications: 2'-F pyrimidines
B5: SEQ ID NO:36 (ssRNA)
RNA: GGGAGAGGAGAAGAGGAAGUGCACAGGGGUUGGUGUCGGGUGCACAGUAUAAG
modifications: 2'-F pyrimidines
B6: SEQ ID NO:36-1 (ssRNA)
RNA: B5 RNA
modifications: 2'-F pyrimidines; 2'-OMe on all of 5' single strand (nt 1-18)
B7: SEQ ID NO:39 (ssRNA)
RNA: GGGAGAGGAGAAGAGGAAGGCACAGGGGUUGGUGUCGGGUGCCAG
modifications: 2'-F pyrimidines
B8: SEQ ID NO:41 (ssRNA)
RNA: GGGAAGGAGAAGAGGAAGUGCACAGGGGUUGGUGUCGGGUGCACAGUAUAAG
modifications: 2'-F pyrimidines
B9: SEQ ID NO:42 (ssRNA)
RNA: B8 RNA with A5G, G6A, A8G, G9A, A10G
modifications: 2'-F pyrimidines
B10: SEQ ID NO:43 (ssRNA)
RNA: GGGAGAGGAGAAGAGGAGUGCACAGGGGUUGGUGUCGGGUGCACAGUAUAAG
modifications: 2'-F pyrimidines
B11: SEQ ID NO:45-1 (ssRNA)
RNA: GGGAGAGGAGAAGAGGAAGUGCACAGGGGUUGGUGUCGGGUGCAC
modifications: 5' PEG2000-C12; 3' idT; 2'-F pyrimidines; 2'-OMe all A in 5' single-stranded part
B12: SEQ ID NO:45-2 (ssRNA)
RNA: B11 RNA
modifications: 2'-F pyrimidines; 2'-OMe all A in 5' single-stranded part and G in loop: agggg(M)u(F)u(F)g(M)g(M)u(F)g(M)u(F)c(F)
B13: SEQ ID NO:45-3 (ssRNA)
RNA: B11 RNA
modifications: 2'-F pyrimidines; 2'-OMe all A in 5' single-stranded part and A, G in internal loop: a(M)g(M)ggg and c(F)g(M)g(M)g
B14: SEQ ID NO:45-4 (ssRNA)
RNA: B11 RNA
modifications: 2'-F pyrimidines; 2'-OMe all A in 5' single-stranded part and A, G in end stem: gu(F)g(M)c(F)a(M)c(F) and u(F)g(M)c(F)a(M)c(F)
B15: SEQ ID NO:61-3 (ssRNA)
RNA: GGGAAGGAGGAAGUGCACAGGGGUUGGUGUCGGGUGCAC
modifications: g(F)g(F)g(F)a(M)a(M)g(F)g(F)a(M)g(F)g(F)a(M)a(M)g(M)u(F)g(M)c(F)a(M)c(F)a(M)g(F)g(M)g(M)g(M)u(F)u(F)g(M)g(M)u(F)g(M)u(F)c(F)g(F)g(F)g(M)u(F)g(M)c(F)a(M)c(F); M 2'-OMe, F 2'-F
B16: SEQ ID NO:61-4 (ssRNA)
RNA: B15 RNA
modifications: ggga(M)a(M)gga(M)gga(M)a(M)g(M)u(F)g(M)c(F)a(M)c(F)aggg(M)g(M)u(F)u(F)g(M)g(M)u(F)g(M)u(F)c(F)gggu(F)g(M)c(F)a(M)c(F); M 2'-OMe, F 2'-F
B17: SEQ ID NO:61-5 (ssRNA)
RNA: B15 RNA
modifications: as 61-4 plus 5' branched PEG40k and 3' idT
B18: SEQ ID NO:61-6 (ssRNA)
RNA: B15 RNA
modifications: as 61-4 plus PEG30k at both ends
B19: SEQ ID NO:61-7 (ssRNA)
RNA: B15 RNA
modifications: as 61-4 plus 2'-OMe: c(F)g(M)g(M)gu(F) near 3' end
B20: SEQ ID NO:61-8 (ssRNA)
RNA: B15 RNA
modifications: as 61-4 but a(M)g(M)gg(M)g(M) in place of aggg(M)g(M)
B21: SEQ ID NO:61-9 (ssRNA)
RNA: B15 RNA
modifications: 5' PEG2000; as 61-4 but a(M)gg(M)g(M)g(M) and ggg(M)u(F)

Biological target: T1, midkine (full-length)
Test: cell_activity; 100 nM RNA
Conditions: tags: expressed in yeast
Protocol: (§1) 30 μL of 1.5 μM midkine was applied to the outer surface of the membrane of Chemotaxicell (membrane pore diameter 8 μm, manufactured by Kurabo) to immobilize the midkine to the outer surface of the membrane. The midkine-immobilized Chemotaxicell was placed on a 24-well culture plate containing 500 μL of a medium (supplemented with 0.3% bovine serum albumin, Dulbecco's Modified Eagle's medium) supplemented with each RNA aptamer added thereto at 100 nM. 200 μL of UMR106 cells were placed in the inner layer of the Chemotaxicell chamber at a density of 1×10⁶ cells/mL, and cultured at 37° C. for 4 hours. The cells remaining in the inner layer of the Chemotaxicell chamber were removed, and the cells that had infiltrated and adhered to the midkine-applied surface were fixed with methanol. The Chemotaxicell chamber was immersed in a 1% aqueous solution of Crystal Violet for 30 minutes to stain the cells. After the Chemotaxicell chamber was washed with distilled water and dried, the pigment was extracted with a mixed solution of 200 μL of 1% SDS and 1% triton X100. 150 μL of the extract was transferred to a 96-well microplate, and its absorbance at 590 nm was determined.
(§2) The aptamer shown by SEQ ID NO:5 is 77 nucleotides long, having the 2′-position of the ribose of the pyrimidine nucleotide fluoro-substituted. To enable the chemical synthesis, to reduce the toxicity, and to improve the stability in the blood, miniaturization and stabilization of this aptamer were performed. The operations of miniaturization and stabilization were performed on the basis of the secondary structure estimated by the MFOLD program, and the activity was evaluated by a cell migration inhibition experiment. The RNA concentration in the cell migration inhibition experiment was 100 nM or 500 nM. Since some errors occur in experimental results depending on cell condition, a previously assayed sample was included as a positive control in each measurement.

Question: For B1, which activity is on record?
Answer: 94 % of SEQ 5 inhibition

Question: Which activity does the source give for B2 here?
Answer: 100 % of SEQ 5 inhibition

Question: Which activity does the source give for B3 here?
Answer: 40 % of SEQ 5 inhibition

Question: For B4, which activity is on record?
Answer: 90 % of SEQ 5 inhibition

Question: For B5, which activity is on record?
Answer: 91 % of SEQ 5 inhibition

Question: For B6, which activity is on record?
Answer: 60 % of SEQ 5 inhibition

Question: B7 was tested. Which activity did it give?
Answer: 52 % of SEQ 5 inhibition

Question: Which activity does the source give for B8 here?
Answer: 97 % of SEQ 5 inhibition

Question: How did the activity turn out when B9 was run?
Answer: 110 % of SEQ 5 inhibition

Question: With B10 as the molecule, how does the activity read?
Answer: 42 % of SEQ 5 inhibition

Biological target: T1, midkine (full-length)
Test: cell_activity
Conditions: 500 nM; control

Question: Which activity (% of SEQ 40 inhibition) does the source give for tRNA here?
Answer: 28

Biological target: T1, midkine (full-length)
Test: cell_activity; UMR106 migration inhibition, 500 nM RNA
Conditions: tags: expressed in yeast

Question: B11 was tested. Which activity did it give?
Answer: 100 % of SEQ ID NO:40

Question: Which activity does the source give for B12 here?
Answer: 100 % of SEQ ID NO:40

Question: How did the activity turn out when B13 was run?
Answer: 56 % of SEQ ID NO:40

Question: With B14 as the molecule, how does the activity read?
Answer: 100 % of SEQ ID NO:40

Biological target: T1, midkine (full-length)
Test: as above
Conditions: tags: expressed in yeast
Remark: another data set of the same source
Protocol: as §1, §2

Question: Which activity does the source give for B15 here?
Answer: 80 % of SEQ ID NO:40

Question: B16 was tested. Which activity did it give?
Answer: 86 % of SEQ ID NO:40

Question: Which activity does the source give for B17 here?
Answer: 40 % of SEQ ID NO:40

Question: For B18, which activity is on record?
Answer: 57 % of SEQ ID NO:40

Question: B19 was tested. Which activity did it give?
Answer: 46 % of SEQ ID NO:40

Question: How did the activity turn out when B20 was run?
Answer: 54 % of SEQ ID NO:40

Question: B21 was tested. Which activity did it give?
Answer: 39 % of SEQ ID NO:40
